The record followed here is patent US20200270321A1 (Hoffmann-La Roche, published 2020).

Numbering of substitutions follows the chain as printed. Names and notes keep the numbering of the source.

One test concerns the target T1, cyCD19 ECD (cynomolgus).
T1 construct: extracellular domain; also called cynomolgus CD19 ectodomain
Briefly: binding to CD19 ECD; method not stated.

Test [1] has as its target T2, monomeric human CD19 Fc (kih) fusion protein (human, UniProt P0DOX5 223-449 = IgG part).
T2 construct: also called monomeric CD19-Fc
Briefly: SPR (ProteOn XPR36), Fab from bacterial supernatant captured by anti-human Fab, monomeric CD19-Fc as analyte.
Protocol: In order to further characterize the ELISA-positive clones, the off-rate was measured by surface plasmon resonance and compared with the parental humanized clone 8B8.
For this experiment, 7000 RU of polyclonal anti-human Fab antibody were immobilized on all 6 channels of a GLM chip by Amine coupling (NaAcetate pH4.5, 25 μl/min, 240 s) (vertical orientation). Each antibody-containing bacterial supernatant was filtered and 2-fold diluted with PBS, and then injected for 360s at 25 μl/minute to achieve immobilization levels of between 100 and 400 response units (RU) in vertical orientation. […] Regeneration was performed by two pulses of 10 mM glycine pH 1.5 and 50 mM NaOH for 30 s at 90 ul/min (horizontal orientation). Dissociation rate constants (koff) were calculated using a simple one-to-one Langmuir binding model in ProteOn Manager v3.1 software by simultaneously fitting the sensorgrams.

Another test has as its target T3, huCD19 ECD (human, UniProt P15391 20-291).
T3 construct: also called human CD19 ectodomain
T3 sequence: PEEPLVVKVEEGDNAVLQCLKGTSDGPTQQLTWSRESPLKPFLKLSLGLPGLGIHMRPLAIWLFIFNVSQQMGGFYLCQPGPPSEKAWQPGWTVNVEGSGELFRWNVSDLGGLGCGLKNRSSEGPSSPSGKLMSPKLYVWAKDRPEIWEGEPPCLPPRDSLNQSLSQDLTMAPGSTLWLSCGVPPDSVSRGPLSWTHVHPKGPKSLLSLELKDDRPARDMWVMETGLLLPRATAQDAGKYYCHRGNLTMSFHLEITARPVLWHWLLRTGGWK
Briefly: binding to CD19 ECD; method not stated.

Test [2] has as its target T4, human fibroblast activation protein (huFAP) on cells (human, UniProt Q12884 1-760).
T4 construct: Transfected in NIH/3T3-huFAP clone 39; also called NIH/3T3-huFAP clone 39; WM266-4
Briefly: flow cytometry on MV-3 cells; PE anti-human IgG Fc-gamma F(ab')2; MFI.

The target of test [3] is T4, human fibroblast activation protein …. Briefly: flow cytometry on WM-266-4 cells; PE anti-human IgG Fc-gamma F(ab')2; MFI. For orientation: In flow cytometry, cells or beads pass a laser one at a time.
For test [4], the target named is T5, human 4-1BB (CD137) on cells (human, UniProt Q07011 24-255).
T5 construct: whole, on cells; also called 4-1BB+ human T cells
Briefly: flow cytometry on activated human T cells, gate CD4+; PE anti-human IgG Fc-gamma F(ab')2; MFI baseline corrected.

T5 sequence (Q07011 24-255): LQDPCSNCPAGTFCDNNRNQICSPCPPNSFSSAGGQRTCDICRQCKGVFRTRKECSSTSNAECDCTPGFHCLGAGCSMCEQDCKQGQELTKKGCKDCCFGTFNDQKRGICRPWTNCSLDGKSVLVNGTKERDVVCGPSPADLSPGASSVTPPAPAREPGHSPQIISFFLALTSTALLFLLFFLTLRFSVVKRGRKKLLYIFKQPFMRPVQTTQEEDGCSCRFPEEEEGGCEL

B1: wild-type humanized anti-human CD19 antibody 8B8 (antibody, V domains shown)
VH: QVQLVQSGAEVKKPGASVKVSCKASGYTFTDYIMHWVRQAPGQGLEWMGYINPYNDGSKYTEKFNGRVTMTSDTSISTAYMELSRLRSDDTAVYYCARGTYYYGSALFDYWGQGTTVTVSS
VL: DIVMTQTPLSLSVTPGQPASISCKSSQSLENSNGNTYLNWYLQKPGQSPQLLIYRVSKRFSGVPDRFSGSGSGTDFTLKISRVEAEDVGVYYCLQLTHVPYTFGQGTKLEIK
notes: also called wt 8B8
Take B1: in the test with cyCD19 ECD, a half-maximal effect (EC50) was put at 0.313 µg/mL.

B2: affinity-matured 8B8-derived clone 2B11, Fab in bacterial supernatant (Fab, V domains shown)
VH: B1 VH with N65Q, S105P, A106Q
VL: B1 VL with N31T, N33T, N35T, T97L, H98E, V99D
notes: tested as a soluble Fab from bacterial supernatant; also called 8B8-2B11; CD19 (8B8-2B11)
With B2, the koff – broadly, the first-order rate constant of dissociation – in test [1] stood at 4.37e-06 s⁻¹.

B3: humanized anti-human CD19 antibody clone 8B8-018 (antibody, V domains shown)
VH: B1 VH with N65Q
VL: B1 VL with S32P
notes: also called CD19 (8B8-018)
B3: the EC50 (in general, the concentration needed to bring the measured effect to its halfway point) came out at 0.084 µg/mL with huCD19 ECD and 0.255 µg/mL in the test with cyCD19 ECD.

B4: bivalent binding FAP (28H1)-targeted huIgG1 P329G LALA (antibody, V domains shown)
VH: EVQLLESGGGLVQPGGSLRLSCAASGFTFSSHAMSWVRQAPGKGLEWVSAIWASGEQYYADSVKGRFTISRDNSKNTLYLQMNSLRAEDTAVYYCAKGWLGNFDYWGQGTLVTVSS
VL: EIVLTQSPGTLSLSPGERATLSCRASQSVSRSYLAWYQQKPGQAPRLLIIGASTRATGIPDRFSGSGSGTDFTLTISRLEPEDFAVYYCQQGQVIPPTFGQGTKVEIK
notes: the rest is said to be human IgG1 P329G LALA; also called FAP(28H1)-targeted hu IgG1 P329G LALA control molecule
With B4, the “EC50 (read off the curve)” value in test [2] and in test [3] was approximately 1 nM in each case. For the same molecule, the binding result in test [4] is listed as “no binding (tested: about 300 nM)”.
